T1: HLA-DRB1*0101 (human)
T1 chain 1: not shown
T1 chain 2: not shown

T2: HLA-DR3 (DRB1*0301) (human)
T2 chain 1: not shown
T2 chain 2: not shown

T3: HLA-DRB1*0301 (human)
T3 chain 1: not shown
T3 chain 2: not shown


Molecular target: T1, HLA-DRB1*0101 (human)
Experiment: competition with 125I probe peptide, purified HLA
Settings: remark: other sources report otherwise

IC50 | Binder
11 nM | NLELTYLPTNASLSF [Her2/neu.59]
14 nM | SRLLGICLTSTVQLV [Her2/neu.783]
21 nM | CKKIFGSLAFLPESF [Her2/neu.367]

Each binder was assayed against HLA-A*6802 (human) (assay: competition for purified HLA vs 125I-labelled probe peptide, gel filtration). Settings: remark: other sources report otherwise.

IC50 | Binder
8000 nM | CLTSTVQLV [Her2/neu.789]

Molecular target: T1, HLA-DRB1*0101 (human)
Experiment: competition with 125I-labelled standard peptide, purified HLA-DR, gel filtration
Settings: remark: other sources report otherwise

IC50 | Binder
14 nM | SRLLGICLTSTVQLV [Her2/neu.783]

What follows are binders tested against HLA-A*0201 (human) (assay: competitive inhibition of 125I-labeled probe peptide binding to purified HLA-A*0201). Settings: remark: other sources report otherwise.

IC50 | Binder
< 500 nM | ALCRWGLLL [Her2/neu.5]
< 500 nM | ILHNGAYSL [Her2/neu.435]
< 500 nM | CLTSTVQLV [Her2/neu.789]
< 500 nM | ILDEAYVMA [Her2/neu.767]
< 500 nM | HLYQGCQVV [Her2/neu.48]

The binders below were run against HLA-A*0201 (human) (assay: inhibition of 125I-labelled probe peptide binding to purified HLA, gel filtration). Settings: remark: other sources report otherwise; scale: ratio.

relative binding ratio | Binder
0.0011 | TLQGLGISWL [HER2/neu peptide, position 444, 10 amino acids]

Molecular target: T2, HLA-DR3 (DRB1*0301) (human)
Experiment: competition binding assay, purified HLA, 125I-labelled probe peptide, gel filtration
Settings: remark: other sources report otherwise

relative binding ratio (ratio to standard peptide) | Binder
-0.0027 | LQGLPREYVNARHCL [HER2/neu peptide … (position 547)]
-0.0027 | PESFDGDPASNTAPL [HER2/neu peptide … (position 378)]
0.027 | LQRYSEDPTVPLPSE [HER2/neu peptide … (position 1109)]

These binders were tested against HLA-A*6802 (human) (assay: competition with 125I probe peptide for purified HLA). Settings: remark: other sources report otherwise.

IC50 | Binder
8000 nM | CLTSTVQLV [Her2/neu.789 …]
2000 nM | VVLGVVFGI [Her2/neu.665 …]

What follows are binders tested against HLA-A*0101 (human) (assay: competition with 125I-labelled probe peptide for purified HLA-A*0101, gel filtration; relative to standard peptide). Settings: remark: other sources report otherwise.

relative binding ratio (IC50 of standard peptide / IC50 of test peptide) (relative binding ratio) | Binder
0.0049 | FESMPNPEGRY [HER2/neu peptide, position 279, 11 amino acids]

What follows are binders tested against HLA-A*2401 (human) (assay: inhibition of 125I-labelled standard peptide binding to purified HLA, gel filtration). Settings: not given.

Binder | relative binding ratio (IC50 of standard peptide / IC50 of test peptide)
SYMPIWKF [HER2/neu peptide, position 609, 8 amino acids] | 0.32
TMRRLLQETEL [HER2/neu peptide, position 686, 11 amino acids] | -0.0003
SMPNPEGRY [HER2/neu peptide, position 281, 9 amino acids] | 0.0001
RWGLLLAL [HER2/neu peptide, position 8, 8 amino acids] | 0.025
SYLEDVRL [HER2/neu peptide, position 834, 8 amino acids] | 0.0059

More lines, now with the values ahead:

relative binding ratio (IC50 of standard peptide / IC50 of test peptide) | Binder
0.038 | TYLPTNASL [HER2/neu peptide, position 63, 9 amino acids]
-0.0003 | SWLGLRSL [HER2/neu peptide, position 451, 8 amino acids]
0.012 | RYSEDPTVPL [HER2/neu peptide, position 1111, 10 amino acids]
0.0036 | SWLGLRSLREL [HER2/neu peptide, position 451, 11 amino acids]
0.063 | SYGVTVWELM [HER2/neu peptide, position 907, 10 amino acids]
1.3 | RWGLLLALL [HER2/neu peptide, position 8, 9 amino acids]
0.0002 | TFGAKPYDGI [HER2/neu peptide, position 917, 10 amino acids]
0.12 | SYGVTVWEL [HER2/neu peptide, position 907, 9 amino acids]
0.018 | SMPNPEGRYTF [HER2/neu peptide, position 281, 11 amino acids]

Molecular target: T3, HLA-DRB1*0301 (human)
Experiment: competition with 125I-labeled standard peptide, purified HLA-DR, gel filtration
Settings: remark: other sources report otherwise

relative binding ratio (ratio (standard IC50 / test IC50)) | Binder
0.027 | LQRYSEDPTVPLPSE [HER2/neu DR supermotif exemplary peptide … (position 1109)]
-0.0027 | LQGLPREYVNARHCL [HER2/neu DR supermotif exemplary peptide … (position 547)]
-0.0027 | PESFDGDPASNTAPL [HER2/neu DR supermotif exemplary peptide … (position 378)]

Molecular target: T1, HLA-DRB1*0101 (human)
Experiment: inhibition of 125I probe peptide binding to purified HLA-DR, gel filtration
Settings: remark: other sources report otherwise

IC50 | Binder
11 nM | NLELTYLPTNASLSF [Her2/neu.59]
14 nM | SRLLGICLTSTVQLV [Her2/neu.783]
21 nM | CKKIFGSLAFLPESF [Her2/neu.367]

These binders were tested against HLA-A*2401 (purified HLA class I molecule) (human) (assay: competition with 125I-labelled standard peptide for purified HLA, gel filtration). Settings: scale: ratio.

Binder | relative binding ratio
GMGAAKGLQSL [HER2/neu peptide, position 1091, 11 amino acids] | -0.0003
IWIPDGENVKI [HER2/neu peptide, position 738, 11 amino acids] | 0.0027
IMVKCWMI [HER2/neu peptide, position 954, 8 amino acids] | 0.021
HFNHSGICEL [HER2/neu peptide, position 257, 10 amino acids] | 0.0002
IFHKNNQL [HER2/neu peptide, position 172, 8 amino acids] | -0.0003
GMGAAKGL [HER2/neu peptide, position 1091, 8 amino acids] | -0.0003

Results, then the binder that gave them:

relative binding ratio | Binder
0.012 | EYLVPQQGFF [HER2/neu peptide, position 1022, 10 amino acids]
0.0061 | EYVNARHCL [HER2/neu peptide, position 553, 9 amino acids]
-0.0003 | EYHADGGKVPI [HER2/neu peptide, position 876, 11 amino acids]
0.012 | IFGSLAFL [HER2/neu peptide, position 370, 8 amino acids]
0.0044 | GYLYISAW [HER2/neu peptide, position 408, 8 amino acids]
0.0014 | EYLVPQQGF [HER2/neu peptide, position 1022, 9 amino acids]

These binders were tested against HLA-A*2401 (human) in the same assay as above. Settings: not given.

Binder | relative binding ratio (IC50 of standard peptide / IC50 of test peptide) (ratio to standard peptide)
LMPYGCLL [HER2/neu peptide, position 800, 8 amino acids] | 0.0076
LFRNPHQAL [HER2/neu peptide, position 485, 9 amino acids] | 0.0002
PMCKGSRCW [HER2/neu peptide, position 197, 9 amino acids] | 0.0011
LYISAWPDSL [HER2/neu peptide, position 410, 10 amino acids] | 0.084
NWCMQIAKGM [HER2/neu peptide, position 824, 10 amino acids] | 0.0002
KWMALESIL [HER2/neu peptide, position 887, 9 amino acids] | 0.015

Other lines, results leading:

relative binding ratio (IC50 of standard peptide / IC50 of test peptide) (ratio to standard peptide) | Binder
0.0006 | LFEDNYALAVL [HER2/neu peptide, position 107, 11 amino acids]
0.0001 | LMTFGAKPY [HER2/neu peptide, position 915, 9 amino acids]
0.008 | KWMALESI [HER2/neu peptide, position 887, 8 amino acids]
0.17 | PYVSRLLGI [HER2/neu peptide, position 780, 9 amino acids]
0.0006 | LFEDNYAL [HER2/neu peptide, position 107, 8 amino acids]
0.0024 | KYTMRRLL [HER2/neu peptide, position 684, 8 amino acids]
0.0005 | PYDGIPAREI [HER2/neu peptide, position 922, 10 amino acids]
0.0014 | LFRNPHQALL [HER2/neu peptide, position 485, 10 amino acids]
